Reference: patent US20240117018A1

Experiments:
Assay in all cases: cell-based or functional assay
[1] = molecular target: HIV-1 Env pseudovirus 235-47 (HIV-1)
[2] = molecular target: HIV-1 Env pseudovirus 6041.v3.c23 (HIV-1)
[3] = molecular target: HIV-1 Env pseudovirus 6480.v4.c25 (HIV-1)
[4] = molecular target: HIV-1 Env pseudovirus CAAN5342.A2 (HIV-1)
[5] = molecular target: HIV-1 Env pseudovirus Ce1176_A3 (HIV-1)
[6] = molecular target: HIV-1 Env pseudovirus Ce704809221_1B3 (HIV-1)
[7] = molecular target: HIV-1 Env pseudovirus Du172.17 (HIV-1)
[8] = molecular target: HIV-1 Env pseudovirus HIV-001428-2.42 (HIV-1)
[9] = molecular target: HIV-1 Env pseudovirus HIV-16055-2.3 (HIV-1)
[10] = molecular target: HIV-1 Env pseudovirus Q259.d2.17 (HIV-1)
[11] = molecular target: HIV-1 Env pseudovirus RHPA4259.7 (HIV-1)
[12] = molecular target: HIV-1 Env pseudovirus T255-34 (HIV-1)
[13] = molecular target: HIV-1 Env pseudovirus THRO4156.18 (HIV-1)
[14] = molecular target: HIV-1 Env pseudovirus WITO4160.33 (HIV-1)
[15] = molecular target: HIV-1 Env pseudovirus X1193_c1 (HIV-1)
[16] = molecular target: HIV-1 Env pseudovirus X1632_S2_B10 (HIV-1)
[17] = molecular target: HIV-1 Env pseudovirus ZM109F.PB4 (HIV-1)
[18] = molecular target: HIV-1 Env pseudovirus CNE19 (HIV-1)
[19] = molecular target: HIV-1 Env pseudovirus CNE20 (HIV-1)
[20] = molecular target: HIV-1 Env pseudovirus CNE21 (HIV-1)
[21] = molecular target: HIV-1 Env pseudovirus CNE30 (HIV-1)
[22] = molecular target: HIV-1 Env pseudovirus CNE53 (HIV-1)
[23] = molecular target: HIV-1 Env pseudovirus CNE58 (HIV-1)

VRC01 (antibody)
IC50 (Titer in TZM.bl cells) [1]: 0.04 µg/mL | IC80 (Titer in TZM.bl cells) [1]: 0.17 µg/mL | IC50 (Titer in TZM.bl cells) [2]: 0.02 µg/mL | IC80 (Titer in TZM.bl cells) [2]: 0.08 µg/mL | IC50 (Titer in TZM.bl cells) [3]: 0.04 µg/mL | IC80 (Titer in TZM.bl cells) [3]: 0.09 µg/mL | IC50 (Titer in TZM.bl cells) [4]: 0.82 µg/mL | IC80 (Titer in TZM.bl cells) [4]: 2.8 µg/mL | IC50 (Titer in TZM.bl cells) [5]: 2.25 µg/mL | IC80 (Titer in TZM.bl cells) [5]: 8.1 µg/mL | IC50 (Titer in TZM.bl cells) [6]: 0.55 µg/mL | IC80 (Titer in TZM.bl cells) [6]: 2.05 µg/mL | IC50 (Titer in TZM.bl cells) [7]: > 50 µg/mL | IC80 (Titer in TZM.bl cells) [7]: > 50 µg/mL | IC50 (Titer in TZM.bl cells) [8]: 0.02 µg/mL | IC80 (Titer in TZM.bl cells) [8]: 0.06 µg/mL | IC50 (Titer in TZM.bl cells) [9]: 0.08 µg/mL | IC80 (Titer in TZM.bl cells) [9]: 0.26 µg/mL | IC50 (Titer in TZM.bl cells) [10]: 0.17 µg/mL | IC80 (Titer in TZM.bl cells) [10]: 0.54 µg/mL | IC50 (Titer in TZM.bl cells) [11]: 0.06 µg/mL | IC80 (Titer in TZM.bl cells) [11]: 0.185 µg/mL | IC50 (Titer in TZM.bl cells) [12]: 0.7 µg/mL | IC80 (Titer in TZM.bl cells) [12]: 2.7 µg/mL | IC80 (Titer in TZM.bl cells) [13]: 23 µg/mL | IC50 (Titer in TZM.bl cells) [14]: 0.15 µg/mL | IC80 (Titer in TZM.bl cells) [14]: 0.41 µg/mL | IC50 (Titer in TZM.bl cells) [15]: 0.11 µg/mL | IC80 (Titer in TZM.bl cells) [15]: 0.32 µg/mL | IC50 (Titer in TZM.bl cells) [16]: 0.12 µg/mL | IC80 (Titer in TZM.bl cells) [16]: 0.74 µg/mL | IC50 (Titer in TZM.bl cells) [17]: 0.13 µg/mL | IC80 (Titer in TZM.bl cells) [17]: 0.75 µg/mL

N49P7.2 (antibody)
IC50 [4]: 0.809 µg/mL | IC80 [4]: 2.81 µg/mL | MPI [4]: 100 | IC50 [18]: 0.033 µg/mL | IC80 [18]: 0.129 µg/mL | MPI [18]: 100 | IC50 [19]: 0.119 µg/mL | IC80 [19]: 0.574 µg/mL | MPI [19]: 99 | IC50 [20]: 48.3 µg/mL | IC80 [20]: > 50 µg/mL | MPI [20]: 51 | IC50 [21]: 0.362 µg/mL | IC80 [21]: 1.2 µg/mL | MPI [21]: 100 | IC50 [22]: 0.1 µg/mL | IC80 [22]: 0.277 µg/mL | MPI [22]: 100 | IC50 [23]: 0.045 µg/mL | IC80 [23]: 0.129 µg/mL | MPI [23]: 100 | IC50 [5]: 0.332 µg/mL | IC80 [5]: 1.08 µg/mL | MPI [5]: 100 | IC50 [6]: 0.874 µg/mL | IC80 [6]: 3.88 µg/mL | MPI [6]: 100 | IC50 [7]: 0.29 µg/mL | IC80 [7]: 1.08 µg/mL | MPI [7]: 100 | IC50 [8]: 0.01 µg/mL | IC80 [8]: 0.036 µg/mL | MPI [8]: 100 | IC50 [9]: 0.204 µg/mL | IC80 [9]: 0.721 µg/mL | MPI [9]: 100 | IC50 [10]: 38.5 µg/mL | IC80 [10]: > 50 µg/mL | MPI [10]: 54 | IC50 [11]: 0.1 µg/mL | IC80 [11]: 0.289 µg/mL | MPI [11]: 100 | IC50 [13]: 6.29 µg/mL | IC80 [13]: 33.3 µg/mL | MPI [13]: 94 | IC50 [14]: 0.051 µg/mL | IC80 [14]: 0.215 µg/mL | MPI [14]: 100 | IC50 [17]: 0.065 µg/mL | IC80 [17]: 0.321 µg/mL | MPI [17]: 99

N49P11 (antibody)
IC50 [4]: 9.03 µg/mL | IC80 [4]: 20.8 µg/mL | MPI [4]: 100 | IC50 [18]: 0.437 µg/mL | IC80 [18]: 5.5 µg/mL | MPI [18]: 100 | IC50 [19]: 5.19 µg/mL | IC80 [19]: 22.6 µg/mL | MPI [19]: 100 | IC50 [20]: 7.4 µg/mL | IC80 [20]: 21.9 µg/mL | MPI [20]: 100 | IC50 [21]: 0.889 µg/mL | IC80 [21]: 4.45 µg/mL | MPI [21]: 100 | IC50 [22]: 0.43 µg/mL | IC80 [22]: 2.88 µg/mL | MPI [22]: 100 | IC50 [23]: 0.038 µg/mL | IC80 [23]: 0.135 µg/mL | MPI [23]: 100 | IC50 [5]: 0.946 µg/mL | IC80 [5]: 6.05 µg/mL | MPI [5]: 100 | IC50 [6]: 0.644 µg/mL | IC80 [6]: 3.3 µg/mL | MPI [6]: 100 | IC50 [7]: 5.65 µg/mL | IC80 [7]: 17.9 µg/mL | MPI [7]: 100 | IC50 [8]: 0.221 µg/mL | IC80 [8]: 1.64 µg/mL | MPI [8]: 100 | IC50 [9]: 0.091 µg/mL | IC80 [9]: 0.503 µg/mL | MPI [9]: 100 | IC50 [10]: 8.42 µg/mL | IC80 [10]: 21.4 µg/mL | MPI [10]: 100 | IC50 [11]: 0.202 µg/mL | IC80 [11]: 0.956 µg/mL | MPI [11]: 100 | IC50 [13]: 1.84 µg/mL | IC80 [13]: 10.4 µg/mL | MPI [13]: 100 | IC50 [14]: 4.86 µg/mL | IC80 [14]: 13.2 µg/mL | MPI [14]: 100 | IC50 [17]: 5.2 µg/mL | IC80 [17]: 19.4 µg/mL | MPI [17]: 100

N49P18.1 (antibody)
IC50 [4]: 16.1 µg/mL | IC80 [4]: 49.1 µg/mL | MPI [4]: 83 | IC50 [18]: 2.34 µg/mL | IC80 [18]: 9.64 µg/mL | MPI [18]: 99 | IC50 [19]: 1.33 µg/mL | IC80 [19]: 6.36 µg/mL | MPI [19]: 100 | IC50 [20]: 7.93 µg/mL | IC80 [20]: 29.2 µg/mL | MPI [20]: 95 | IC50 [21]: 13.1 µg/mL | IC80 [21]: 32.2 µg/mL | MPI [21]: 93 | IC50 [22]: 4.08 µg/mL | IC80 [22]: 21.8 µg/mL | MPI [22]: 97 | IC50 [23]: 1.92 µg/mL | IC80 [23]: 5.26 µg/mL | MPI [23]: 100 | IC50 [5]: 32.5 µg/mL | IC80 [5]: > 50 µg/mL | MPI [5]: 61 | IC50 [6]: 41.6 µg/mL | IC80 [6]: > 50 µg/mL | MPI [6]: 59 | IC50 [7]: 6.52 µg/mL | IC80 [7]: 21.3 µg/mL | MPI [7]: 92 | IC50 [8]: 1.13 µg/mL | IC80 [8]: 8.31 µg/mL | MPI [8]: 100 | IC50 [9]: 8.04 µg/mL | IC80 [9]: 22.6 µg/mL | MPI [9]: 97 | IC50 [10]: > 50 µg/mL | IC80 [10]: > 50 µg/mL | MPI [10]: 37 | IC50 [11]: 4.34 µg/mL | IC80 [11]: 21.4 µg/mL | MPI [11]: 98 | IC50 [13]: > 50 µg/mL | IC80 [13]: > 50 µg/mL | MPI [13]: 19 | IC50 [14]: 11 µg/mL | IC80 [14]: 37.6 µg/mL | MPI [14]: 87 | IC50 [17]: 26.6 µg/mL | IC80 [17]: > 50 µg/mL | MPI [17]: 69
